B1: Flag-TFIIEα (natural protein, UniProt P29083 1-439, looked up)
chain: MADPDVLTEVPAALKRLAKYVIRGFYGIEHALALDILIRNSCVKEEDMLELLKFDRKQLRSVLNNLKGDKFIKCRMRVETAADGKTTRHNYYFINYRTLVNVVKYKLDHMRRRIETDERDSTNRASFKCPVCSSTFTDLEANQLFDPMTGTFRCTFCHTEVEEDESAMPKKDARTLLARFNEQIEPIYALLRETEDVNLAYEILEPEPTEIPALKQSKDHAATTAGAASLAGGHHREAWATKGPSYEDLYTQNVVINMDDQEDLHRASLEGKSAKERPIWLRESTVQGAYGSEDMKEGGIDMDAFQEREEGHAGPDDNEEVMRALLIHEKKTSSAMAGSVGAAAPVTAANGSDSESETSESDDDSPPRPAAVAVHKREEDEEEDDEFEEVADDPIVMVAGRPFSYSEVSQRPELVAQMTPEEKEAYIAMGQRMFEDLFE
notes: TFIIEα, the α subunit of the general transcription factor TFIIE; The methods name an anti-Flag-Tag antibody among those used for the co-immunoprecipitations; also called rIIEα/WT; the α subunit of rIIEαβ; source: E. coli, purified; alone or co-produced with rIIEβ

How the values were obtained:
Conditions in all cases: both partners purified
[1] = target: T1, Flag-XPD/WT (UniProt P18074 1-760); assay: co-IP; purified rIIH with XPD/WT, /R112H or /R722W immunoprecipitated with anti-XPD and incubated at 150 and 500 mM KCl; blots for XPB, XPD, CDK7 (Fig. 3f)
T1 construct: XPD subunit of TFIIH; also called the XPD subunit of rIIH/WT; source: Sf21 insect cells infected with baculoviruses for all TFIIH subunits

[2] = target: T2, recombinant TFIIH (rIIH/WT) (UniProt P18074 1-760; P19447 1-782; P32780 1-548; Q92759 1-462; Q13888 1-395; Q13889 …); assay: co-IP; rIIH/WT immunoprecipitated with anti-p62 (protein G magnetic beads) and incubated with rIIEαβ (α and β added together as the co-produced rIIE), washes at 150 and 500 mM KCl; blots with anti-XPB, anti-IIEα, anti-IIEβ (Fig. 3b)
T2 construct: XPD subunit of TFIIH; XPB subunit of TFIIH; p62 subunit of TFIIH; p52 subunit of TFIIH; p44 subunit of TFIIH; p34 subunit of TFIIH; p8 (TTDA, TTD-A) subunit of TFIIH; cdk7 (CDK7 kinase), CAK subunit of TFIIH; cyclin H, CAK subunit of TFIIH; MAT1, CAK subunit of TFIIH; also called rIIH-XPD/WT; TFIIH/WT; copies: + + + + + + + + +

[3] = target: B1; assay: co-IP; rIIEα/WT co-produced with rIIEβ/WT, /A150P or /D187Y, immunoprecipitated at 150 and 500 mM KCl; blots for IIEα and IIEβ (Fig. 3e)

| Binder | binding result [1] | binding result [2] | binding result [3] |
| --- | --- | --- | --- |
| CDK7 (natural protein, UniProt P50613 1-346, looked up, CDK7 kinase, CAK subunit of TFIIH; It stood in the assay together with the other TFIIH subunits; also called CDK7 kinase of the CAK; source: Sf21 insect cells infected with baculoviruses for all TFIIH subunits; in whole cell extract, and purified within rIIH through Flag-XPD) MALDVKSRAKRYEKLDFLGEGQFATVYKARDKNTNQIVAIKKIKLGHRSEAKDGINRTALREIKLLQELSHPNIIGLLDAFGHKSNISLVFDFMETDLEVIIKDNSLVLTPSHIKAYMLMTLQGLEYLHQHWILHRDLKPNNLLLDENGVLKLADFGLAKSFGSPNRAYTHQVVTRWYRAPELLFGARMYGVGVDMWAVGCILAELLLRVPFLPGDSDLDQLTRIFETLGTPTEEQWPDMCSLPDYVTFKSFPGIPLHHIFSAAGDDLLDLIQGLFLFNPCARITATQALKMKYFSNRPGPTPGCQLPRPNCPVETLKEQSNPALAIKRKRTEALEQGGLPKKLIF | binds |  |  |
| B1 |  | binds |  |
| His-TFIIEβ/WT (natural protein, UniProt P29084 1-291, looked up, TFIIEβ, the β subunit of the general transcription factor TFIIE, encoded by GTF2E2; also called rIIEβ/WT; the β subunit of rIIEαβ/WT; source: E. coli, purified; alone or co-produced with rIIEα/WT) MDPSLLRERELFKKRALSTPVVEKRSASSESSSSSSKKKKTKVEHGGSSGSKQNSDHSNGSFNLKALSGSSGYKFGVLAKIVNYMKTRHQRGDTHPLTLDEILDETQHLDIGLKQKQWLMTEALVNNPKIEVIDGKYAFKPKYNVRDKKALLRLLDQHDQRGLGGILLEDIEEALPNSQKAVKALGDQILFVNRPDKKKILFFNDKSCQFSVDEEFQKLWRSVTVDSMDEEKIEEYLKRQGISSMQESGPKKVAPIQRRKKPASQKKRRFKTHNEHLAGVLKDYSDITSSK |  | binds | binds |
| His-TFIIEβ/A150P (natural protein, UniProt P29084 1-291, looked up, TFIIEβ with the trichothiodystrophy patient mutation c.448G>C [p.Ala150Pro]; The mutation is found in TTD patients; also called rIIEβ/A150P; the β subunit of rIIEαβ/A150P; source: E. coli, co-produced with rIIEα/WT, purified) MDPSLLRERELFKKRALSTPVVEKRSASSESSSSSSKKKKTKVEHGGSSGSKQNSDHSNGSFNLKALSGSSGYKFGVLAKIVNYMKTRHQRGDTHPLTLDEILDETQHLDIGLKQKQWLMTEALVNNPKIEVIDGKYAFKPKYNVRDKKPLLRLLDQHDQRGLGGILLEDIEEALPNSQKAVKALGDQILFVNRPDKKKILFFNDKSCQFSVDEEFQKLWRSVTVDSMDEEKIEEYLKRQGISSMQESGPKKVAPIQRRKKPASQKKRRFKTHNEHLAGVLKDYSDITSSK |  | binds | binds |
| His-TFIIEβ/D187Y (natural protein, UniProt P29084 1-291, looked up, TFIIEβ with the trichothiodystrophy patient mutation D187Y; The mutation is found in TTD patients; also called rIIEβ/D187Y; the β subunit of rIIEαβ/D187Y; source: E. coli, co-produced with rIIEα/WT, purified) MDPSLLRERELFKKRALSTPVVEKRSASSESSSSSSKKKKTKVEHGGSSGSKQNSDHSNGSFNLKALSGSSGYKFGVLAKIVNYMKTRHQRGDTHPLTLDEILDETQHLDIGLKQKQWLMTEALVNNPKIEVIDGKYAFKPKYNVRDKKALLRLLDQHDQRGLGGILLEDIEEALPNSQKAVKALGYQILFVNRPDKKKILFFNDKSCQFSVDEEFQKLWRSVTVDSMDEEKIEEYLKRQGISSMQESGPKKVAPIQRRKKPASQKKRRFKTHNEHLAGVLKDYSDITSSK |  | binds | binds |

Source: PMC6504876, “TFIIE orchestrates the recruitment of the TFIIH kinase module at promoter before release during transcription” (Nature Communications, 2019)
